Laboratory results as given in patent publication US5786145A, “Oligonucleotide competitors for binding of HIV RRE to REV protein and assays for screening inhibitors of this binding” (Medical Research Council, priority 1995, dated 1998).
Changes are numbered by the printed parent chain. Entries after “also recorded” stand apart in the source; their conditions may differ. Where two headings read alike, the source gives them in different places.

Tests used:
rev protein [1] = assay: Saturation filter binding of rev to labelled RNA transcripts; parameters: species or system HIV-1; conditions: for rev binding, result in words: saturation filter binding, 0 to 10 nM rev
Method: Rev protein was expressed and purified as described (33) or further purified by chromatography on Heparin-Sepharose. Rev was applied to Heparin columns in a buffer containing 200 mM NaCl/50mM Tris-HCl pH8.0/1 mM DTT/0.1 mM EDTA 0.1% Triton X-100 and eluted in buffer containing 2M NaCl. After gel filtration on Superose 6 (prep grade) columns equilibrated with 200 mM NaCl/50 mM Tris-HCl pH8.0/1 mM DTT/0.1 mM EDTA, the rev protein appeared homogeneous on SDS-polyacrylamide gels and free of RNA contaminants. Rev concentrations were determined by amino acid analysis of the purified protein.
DNA inserts containing RRE-related sequences were cloned between the EcoRI (5') and HindIII (3') sites of pGEM 1, either by cloning PCR products or by cloning annealed pairs of synthetic oligonucleotides. RNA transcripts for binding experiments were prepared by transcription of HindIII cut plasmids using T7 RNA polymerase and purified by gel electrophoresis. These transcripts carry a 5' extension of 15 nucleotides contributed by the vector and an extra A residue at the 3' end from the HindIII site, as described above.
For filter binding assays, each reaction mixture contained 20 pg of uniformly labelled RNA probe (approximately 500 cpm/pg RNA), […] sonicated salmon sperm DNA, […] yeast tRNA, 40 units RNasin (Promega) in […] TK buffer (43 mM Tris-HCl pH8.0, 50 mM KCl). Incubation was at 4° C. for 15 minutes in the presence of 0 to 10 nM purified rev protein. To measure binding, each reaction mixture was applied under gentle vacuum to a 0.45 um Millipore filter which had been pre-wetted with TK buffer. The filters were washed with […] TK buffer, dried, and radioactivity counted by liquid scintillation.
Filter binding assays contained 20 pg uniformly labelled RNA probe (500 dpm per pg RNA), 1 μg salmon sperm DNA, 0.45 μg yeast tRNA and 40 units RNasin (Promega) in 500 μl buffer containing 43 mM Tris-HCl pH 8.0, 50 mM KCl. Mutations in the purine-rich "bubble" sequence (numbered as shown in FIG. 2) were introduced into the R33 stem-loop structure (FIG. 3d) by site-directed mutagenesis.

rev protein [2] = assay: Competition filter binding against labelled RRE RNA (FIG. 11); parameters: species or system HIV-1; conditions: 17 nM rev, 0.5 pM labelled RRE RNA; read-out: D1/2, competitor concentration reducing rev binding to labelled RRE RNA by 50%
Method: Unlabelled RRE RNA was an effective competitor and reduced rev binding to the labelled RRE RNA by 50% of the initial value with a D1/2 =2 nM. The short R33 transcript was also an effective competitor and reduced rev binding with D1/2 =8 nM. The mutations in the "bubble" either reduce or abolish specific rev binding.
Filter binding reactions contained 17 nM rev, 0.5 pM labelled RRE RNA and between 0-100 nM unlabelled competitor RNA. Empty squares, RRE RNA competitor; filled circles, R33 RNA competitor; filled triangles, R34 RNA competitor; empty triangles, R35 RNA competitor.

HIV-1 Rev [3] = biological target: T1, HIV-1 Rev (Human immunodeficiency virus 1, UniProt P04618 P04618:1-116); assay: filter; 50 mM KCl, 4 C; 21% bound at 10 nM rev; conditions: tags: none stated; heparin-Sepharose and Superose 6 purified; chain copies: oligomer (tetramer likely; about 4 per RBC6, 6-8 per full-length RRE at 50 mM KCl) stated; label: 32P uniform
HIV-1 Rev [4] = biological target: T1, HIV-1 Rev; assay: filter; 50 mM KCl, 4 C; 18% bound at 10 nM rev; conditions: tags: none stated; heparin-Sepharose and Superose 6 purified; chain copies: oligomer (tetramer likely; about 4 per RBC6, 6-8 per full-length RRE at 50 mM KCl) stated; label: 32P uniform
HIV-1 Rev [5] = biological target: T1, HIV-1 Rev; assay: filter; shortest T7 transcript with full affinity; conditions: tags: none stated; heparin-Sepharose and Superose 6 purified; chain copies: oligomer (tetramer likely; about 4 per RBC6, 6-8 per full-length RRE at 50 mM KCl) stated; label: 32P uniform; stem-loop with purine-rich bubble
HIV-1 Rev [6] = biological target: T1, HIV-1 Rev; assay: filter; conditions: tags: none stated, heparin-Sepharose and Superose 6 purified, chain copies: oligomer (tetramer likely; about 4 per RBC6, 6-8 per full-length RRE at 50 mM KCl) stated, label: 32P uniform
HIV-1 Rev [7] = biological target: T1, HIV-1 Rev; assay: filter; normal rev binding; conditions: tags: none stated; heparin-Sepharose and Superose 6 purified; chain copies: oligomer (tetramer likely; about 4 per RBC6, 6-8 per full-length RRE at 50 mM KCl) stated; label: 32P uniform; stem-loop with purine-rich bubble
HIV-1 Rev [8] = biological target: T1, HIV-1 Rev; assay: filter; same affinity as full-length RRE; conditions: tags: none stated; heparin-Sepharose and Superose 6 purified; chain copies: oligomer (tetramer likely; about 4 per RBC6, 6-8 per full-length RRE at 50 mM KCl) stated; label: 32P uniform; stem-loop with purine-rich bubble
HIV-1 Rev [9] = biological target: T1, HIV-1 Rev; assay: filter; bubble not formed; conditions: tags: none stated; heparin-Sepharose and Superose 6 purified; chain copies: oligomer (tetramer likely; about 4 per RBC6, 6-8 per full-length RRE at 50 mM KCl) stated; label: 32P uniform
HIV-1 Rev [10] = biological target: T1, HIV-1 Rev; assay: filter; 50 mM KCl, 4 C; 40% bound at 10 nM rev; conditions: tags: none stated, heparin-Sepharose and Superose 6 purified, chain copies: oligomer (tetramer likely; about 4 per RBC6, 6-8 per full-length RRE at 50 mM KCl) stated, label: 32P uniform
HIV-1 Rev [11] = biological target: T1, HIV-1 Rev; assay: competition; D1/2 vs labelled RRE RNA, 17 nM rev; conditions: tags: none stated, heparin-Sepharose and Superose 6 purified, chain copies: oligomer (tetramer likely; about 4 per RBC6, 6-8 per full-length RRE at 50 mM KCl) stated, label: 32P uniform
HIV-1 Rev [12] = biological target: T1, HIV-1 Rev; assay: filter; 50 mM KCl, 4 C; 35% bound at 10 nM rev; conditions: tags: none stated; heparin-Sepharose and Superose 6 purified; chain copies: oligomer (tetramer likely; about 4 per RBC6, 6-8 per full-length RRE at 50 mM KCl) stated; label: 32P uniform; stem-loop with altered bubble
HIV-1 Rev [13] = biological target: T1, HIV-1 Rev; assay: competition; competes with same affinity as RBC6; conditions: tags: none stated; heparin-Sepharose and Superose 6 purified; chain copies: oligomer (tetramer likely; about 4 per RBC6, 6-8 per full-length RRE at 50 mM KCl) stated; RNA three-way junction stabilising bubble (all strands RNA)
HIV-1 Rev [14] = biological target: T1, HIV-1 Rev; assay: filter; 50 mM KCl, 4 C; 20% bound at 10 nM rev; conditions: tags: none stated; heparin-Sepharose and Superose 6 purified; chain copies: oligomer (tetramer likely; about 4 per RBC6, 6-8 per full-length RRE at 50 mM KCl) stated; label: 32P uniform
HIV-1 Rev [15] = biological target: T1, HIV-1 Rev; assay: filter; 50 mM KCl, 4 C; 15% bound at 10 nM rev; conditions: tags: none stated; heparin-Sepharose and Superose 6 purified; chain copies: oligomer (tetramer likely; about 4 per RBC6, 6-8 per full-length RRE at 50 mM KCl) stated; label: 32P uniform
HIV-1 Rev [16] = biological target: T1, HIV-1 Rev; assay: filter; 50 mM KCl, 4 C; 17% bound at 10 nM rev; conditions: tags: none stated; heparin-Sepharose and Superose 6 purified; chain copies: oligomer (tetramer likely; about 4 per RBC6, 6-8 per full-length RRE at 50 mM KCl) stated; label: 32P uniform
[17] = Table I, filter binding, 20 pg labelled RNA probe, 50 mM KCl, read-out: Kd
[18] = stem-loop with purine-rich bubble on 9-bp stem

R33: stem-loop of residues 33 to 63, A56 deleted, inserted on top of a stem containing 9 base pairs; wild-type bubble (GGGAGACCGGAAUUCUGGGCGCAGUGUCAUUGACGCUGCGGUACAGAAUUCCGGCA; chemistry not given here)
% RNA bound (10 nM rev) (rev protein [1]; Table I, 50 mM KCl): 40%
Kd (rev protein [1]; [17]): 3 nM
rev binding, result in words (rev protein [1]): Normal rev binding
IC50 (rev protein [2]): 8 nM

R34 (GGGAGACCGGAAUUCUGCGCAGUGUCAUUGACGCUGCGGUACAGAAUUCCGGC; chemistry not given here)
% RNA bound (10 nM rev) (rev protein [1]; Table I, 50 mM KCl): 3%
rev binding, result in words (rev protein [1]): abolished specific rev binding; also recorded: does not bind rev with measurable affinity
IC50 (rev protein [2]): > 250 nM

R35 (GGGAGACCGGAAUUCUGGCGCAGUGUCAUUGACGCUGCGGUACAGAAUUCCGGCA; chemistry not given here)
% RNA bound (10 nM rev) (rev protein [1]; Table I, 50 mM KCl): 35%
Kd (rev protein [1]; [17]): 4 nM
Kd (rev protein [1]; saturation filter binding of T7 transcripts, read-out: Kd for rev binding): 4 nM
rev binding, result in words (rev protein [1]): reduced rev binding slightly
IC50 (rev protein [2]): 16 nM

B1: R55 (ssRNA)
RNA: GGGAGACCGGAAUUCUAGGCGCAGUGUCAUUGACGCUGCGGUAUAGAAUUCCGGCA
modifications: [-]
Kd (HIV-1 Rev [3]): 4 nM

B2: R42 (ssRNA)
RNA: B1 RNA with A17G, G21C, C39G, U44C
modifications: [none]
Kd (HIV-1 Rev [4]): 8 nM

GGGAGACCGGAAUUCUGGGCGCAGUGUCAUUGACGCUGACGGUACAGGCA (ssRNA) [R19 (RRE 33-66)]
Kd (HIV-1 Rev [5]): 1.73 nM

GGGAGACCGGAAUUCUGGGCGCAGUGUCAUUGACGCUGCGGUACAGGCA (ssRNA) [R22 (A56 deleted)]
Kd (HIV-1 Rev [6]; stem-loop with purine-rich bubble): 1.73 nM

GGGAGACCGGAAUUCUGGGCGCUUCGGCGGUACAGA (ssRNA) [R38 (upper stem-loop replaced by CUUCGG)]
Kd (HIV-1 Rev [6]; hairpin with purine-rich bubble): 1.73 nM

GGGAGACCGGAAUUCUGGGCGCAGUGUCAAUGACGCUGACGGUACAGGCA (ssRNA) [R29 (apex loop antisense)]
binding result (HIV-1 Rev [7]): binds

GGGAGACCGGAAUUCUGGGCGCAGCGUCAUUGACACUGCGGUACAGGCA (ssRNA) [R30 (upper stem antisense)]
binding result (HIV-1 Rev [7]): binds

B3: RRE fragment 1-96 (ssRNA)
RNA: GGGAGACCGGAAUUCCCUUGGGUUCUUGGGAGCAGCAGGAAGCACUAUGGGCGCAGUGUCAUUGACGCUGACGGUACAGGCCAGACAAUUAUUGUCUGGUAUAGUGCAACA
binding result (HIV-1 Rev [8]): binds

B4: RRE fragment 26-92 (ssRNA)
RNA: GGGAGACCGGAAUUCAGCACUAUGGGCGCAGUGUCAUUGACGCUGACGGUACAGGCCAGACAAUUAUUGUCUGGUAUAGUGCA
binding result (HIV-1 Rev [8]): binds

B5: RRE fragment 26-72 (ssRNA)
RNA: GGGAGACCGGAAUUCAGCACUAGGGCGCAGUGUCAUUGACGCUGAGGGUACAGGCCAGACAAUUAUA
binding result (HIV-1 Rev [9]): no binding

B6: R33 (ssRNA)
RNA: B1 RNA with A17G, U44C
Kd (HIV-1 Rev [10]; [18]): 3 nM
IC50 (HIV-1 Rev [11]; [18]): 8 nM

B7: R57 (ssRNA)
RNA: B1 RNA with A17G, G21A, C39U, U44C
modifications: [-]
Kd (HIV-1 Rev [10]): 3 nM

B8: R35 (dG35) (ssRNA)
RNA: GGGAGACCGGAAUUCUGGCGCAGUGUCAUUGACGCUGCGGUACAGAAUUCCGGCA
Kd (HIV-1 Rev [12]): 4 nM
IC50 (HIV-1 Rev [11]; stem-loop with altered bubble): 16 nM

B9: TWJ-U (structured_DNA)
DNA 1: GCACUAUGGGCGCAGC
DNA 2: GCUGCGGUACAGGCCAGA
DNA 3: UCUGGUAUAGUGC
binding result (HIV-1 Rev [13]): binds

B10: R50 (ssRNA)
RNA: B1 RNA with A17G, G19A, U44C
modifications: [-]
Kd (HIV-1 Rev [14]): 5 nM

B11: R52 (ssRNA)
RNA: B1 RNA with A17G, U42C, U44C
modifications: [-]
Kd (HIV-1 Rev [4]): 5 nM

B12: R39 (ssRNA)
RNA: B1 RNA with U16A, A17G, U44C, A45U
modifications: [-]
Kd (HIV-1 Rev [15]): 8 nM

B13: R54 (ssRNA)
RNA: B1 RNA with U16C, A17G, U44C, A45G
modifications: [-]
Kd (HIV-1 Rev [16]): 6 nM
